{
  "source": "the nanobody polyreactivity screen of Harvey et al. (2022)",
  "data": [
    {"assay": "yeast display, Sf9 membrane polyspecificity reagent, FACS + sequencing; frameworks hold sequencing errors", "outline": "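A synthetic nanobody library was expressed on Saccharomyces cerevisiae BJ5465 by galactose induction for 36–48 hours. The library was stained for 1 hour at 4 °C with 10% biotinylated, detergent-solubilized Sf9 membrane reagent and enriched with streptavidin microbeads before FACS. Low and high (top ~1%) gates were set on anti-HA fluorescence for expression and streptavidin fluorescence for reagent binding, and each polyreactivity label reflects the gate of origin.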", "values": [
      {"sequence": "QVQLVESGGGLVQAGGSLRLSCAASGSTFVRYVMGWYRQAPGKERELVAAISEGGGSTYYADSVKGRFTISRDNAKNTVYLQMNSLKPEDTAVYYCAAGRSNSYSPRRRVTYGYNYWGQGTQVTVSS", "polyreactivity (PSR sort gate)": "high polyreactivity"},
      {"sequence": "QVQLVESGGGLVQAGGSLRLSCAASGSTFVRYVMGWYRQAPGKERELVAAISRRGGSTYYADSVKGRFTISRDNAKNTVYLQMNSLKPEDTAVYYCAARGTSRKYYYWGQGTQVTVSS", "polyreactivity (PSR sort gate)": "high polyreactivity"},
      {"sequence": "QVQLVESGGGLVQAGGSLRLSCAASGSTFVSNAMGWDRQAPGQEREVVAALSSGGSPYYADSVKGRFTISRDNAKNTVYLQMNRLKPEDTAVYYCNKRRGRKWPGNYSVVKLLMGYWGQGTQVTVSS", "polyreactivity (PSR sort gate)": "low polyreactivity"},
      {"sequence": "QVQLVESGGGLVQAGGSLRLSCAASGSTFVSNAMGWYRQAPGKERELVAAISSSGGRTSYADSVKGRFTISRDNAKNTVYLQMNSLKPEDTAVYYCAARFKSVDYVQYYYWGQGTQVTVSS", "polyreactivity (PSR sort gate)": "low polyreactivity"},
      {"sequence": "QVQLVESGGGLVQAGGSLRLSCAASGSTFVSNAMGWYRQAPGKERELVAAISTSGGSTYYADSVKGRFTISRDNAKKTVYLQMNSLKTEDTAVYFCAAVSPRRYRYDYWGQGTQVTVSS", "polyreactivity (PSR sort gate)": "low polyreactivity"},
      {"sequence": "QVQLVESGGGLVQAGGSLRLSCAASGSTFVSNAMGWYRQAPGKERELVAAITTGGSTYYADSVKGRFTISRDNAKNTVYLQMNSLKPEDTAVYYCAADSVLNWFWGYEYWGQGTQVTVSS", "polyreactivity (PSR sort gate)": "low polyreactivity"},
      {"sequence": "QVQLVESGGGLVQAGGSLRLSCAASGSTFVSYALGWYRQAPGKERDLVAAISRSGGSTYYADSVKGRFTISRDNAKNTVYVQMNRLKPEDTAVFYCAADCRGPSKRNRDYWGQGTEVTVSS", "polyreactivity (PSR sort gate)": "high polyreactivity"},
      {"sequence": "QVQLVESGGGLVQAGGSLRLSCAASGSTFVSYAMGGSRQAPGKERELVAAISRSGGSTYYADSVKGRFTISRDTAKNTVYLQMNSLKPEDTAGYYCAADGRGPSKRNRDYWGQGTQVTVSS", "polyreactivity (PSR sort gate)": "high polyreactivity"},
      {"sequence": "QVQLVESGGGLVQAGGSLRLSCAASGSTFVSYAMGWYRQAPGKERELVAVISYRGGGTYYADSVKGRFTISRDNAKNTVYLQMNSLKPEDTAVYYCNAELWVLVSSYSYHYDGFDYWGQGTQVTVSS", "polyreactivity (PSR sort gate)": "low polyreactivity"},
      {"sequence": "QVQLVESGGGLVQAGGSLRLSCAASGSTFVSYTMGWYRQAPGKERELVAAISYNGARTYYADSVKGRFTISRDNAKNTVYLQMISLKPEDTAVYDCARRYYSQYDYWGQGTQVTVSS", "polyreactivity (PSR sort gate)": "high polyreactivity"},
      {"sequence": "QVQLVESGGGLVQAGGSLRLSCAASGSTFVVNAMGWYSLAPGKERELVAAITQDGDGTYYADSVKGRFTISRDNAKNTVYLQMNSLKPEDTAVYYCAAYPFSGPYDEFDYWRQGTQVTVSS", "polyreactivity (PSR sort gate)": "low polyreactivity"},
      {"sequence": "QVQLVESGGGLVQAGGSLRLSCAASGSTFVVNDMGWYRQAPGKDRELVASITAGGSTYYADSVKGRFTISRDNAKNTVNLQMNSLKPEDTAVYYCAKVQDRAYLPHQRGRERDYDYWGQGTQVTVSS", "polyreactivity (PSR sort gate)": "low polyreactivity"},
      {"sequence": "QVQLVESGGGLVQAGGSLRLSCAASGSTFVVYAMGWYRQAPGKERELVARITLSDGSTNYADSVKGRFTISRDNAKNTVYLQMNSLKPEDTAVYYCAAEVVPFYYFWFDYWGQGTQVTVSS", "polyreactivity (PSR sort gate)": "low polyreactivity"},
      {"sequence": "QVQLVESGGGLVQAGGSLRLSCAASGSTFVWYAMGWYRQAPGKERELVASITSGGNTNYADSVKGRFTISRDNAKNTVYLQMNSLKPEDSAVYYCNAVRSQRSLSSRYYYWGQGTQVTVSS", "polyreactivity (PSR sort gate)": "low polyreactivity"},
      {"sequence": "QVQLVESGGGLVQAGGSLRLSCAASGSTFVYNAMGWYRQAPGKERELVAAITVSDGSTYYADSVKGRFTISRDNAKNTVYLQMNSLKPEDTAVYYCNADFPRKTRYEYWGQGTQVTVSS", "polyreactivity (PSR sort gate)": "low polyreactivity"},
      {"sequence": "QVQLVESGGGLVQAGGSLRLSCAASGSTFVYNVMGWYRQAPGKERELVAAIRWRGGSTYADSVKGRFTISRDNAKNSVYLQMTSLKPQDTAVYYSNTGHEEDEYDYWGQGTQVTVSS", "polyreactivity (PSR sort gate)": "low polyreactivity"},
      {"sequence": "QVQLVESGGGLVQAGGSLRLSCAASGSTFVYYAMGWYRQAPGKERALVASITTSAGSTYYADSVKGRFTISRDTAKNSVYLQMNSLKPEDTAVYYCNARITITYYYWGQGTQVTVSS", "polyreactivity (PSR sort gate)": "high polyreactivity"},
      {"sequence": "QVQLVESGGGLVQAGGSLRLSCAASGSTFVYYAMGWYRQAPGKERELVADISWSGGDTYYADSVKGRFTISRDNAKNTVYLQMNSLKPVDTAVYYCAAEWSTPSYVGFADGFEYWGQGTQVTVSS", "polyreactivity (PSR sort gate)": "low polyreactivity"},
      {"sequence": "QVQLVESGGGLVQAGGSLRLSCAASGSTFVYYAMGWYRQAPGKERELVARISSGGSTYYADSVKGRFTISRDNAKNTVYLQMNSLKPEDTAVYYCAVLLWVSPLKREFYWGQGTQVTVSS", "polyreactivity (PSR sort gate)": "high polyreactivity"},
      {"sequence": "QVQLVESGGGLVQAGGSLRLSCAASGSTFVYYAMGWYRQAPGKERELVATINYNGGSTSYADSVKGRFTISRDNAKNTVYLQMNSLKPEDTAVYYCAKDRYYTWGDYWGQGTQVTVSS", "polyreactivity (PSR sort gate)": "low polyreactivity"},
      {"sequence": "QVQLVESGGGLVQAGGSLRLSCAASGSTFVYYAMGWYRQAPGKERELVATITSGGSTKYADSVKGRFTISRDNAKNTVYLQMNSLKPEDTAVYYCAAAYRVRGRTYDSWGQGTQVTVSS", "polyreactivity (PSR sort gate)": "high polyreactivity"},
      {"sequence": "QVQLVESGGGLVQAGGSLRLSCAASGSTFVYYAMGWYRQAPGKERELVAVITWSGGRTYYADSVKGRFTISRDNAKNTVYVLMNSLKPEDTAVYYCAARYPGYQYGLDYWGEGTQVTVSS", "polyreactivity (PSR sort gate)": "high polyreactivity"},
      {"sequence": "QVQLVESGGGLVQAGGSLRLSCAASGSTFVYYTMGWYRQAPGKERELVATITYGGGSTYYADSVKGRFTISRDNAKNTVYLQMNSLKPEVTAVYYCAARPSWVRKMYYWGQGTQVTVSS", "polyreactivity (PSR sort gate)": "high polyreactivity"},
      {"sequence": "QVQLVESGGGLVQAGGSLRLSCAASGSTFWAYAMGWYRQAPGKERELVAAITTGGGRTFYADSVKGRFTISRDNAKNTVYLQMNSLKPEDTAVYYCAAVSQSYRMYYWGQGTQVTVSS", "polyreactivity (PSR sort gate)": "low polyreactivity"},
      {"sequence": "QVQLVESGGGLVQAGGSLRLSCAASGSTFWFYAMGWYRQAHGKERELVAVISNSGSTYYADSVKGRFTISRDNAKNTVYLQMNSLKPEDTAVYYCNKDGGGDSYWYDYWGQGTQVTVSS", "polyreactivity (PSR sort gate)": "low polyreactivity"},
      {"sequence": "QVQLVESGGGLVQAGGSLRLSCAASGSTFWGYAMAWYRQAPGKERELVATINQSAGSTYYADSVKGRFTISRDNAKNTVYLQMNSLKPEDTAVYYCAAEARVQFSYDYWGQGTQVTVSS", "polyreactivity (PSR sort gate)": "low polyreactivity"},
      {"sequence": "QVQLVESGGGLVQAGGSLRLSCAASGSTFWGYAMGWSRPAPGKERELVATITTGGGGTYYADSVKGRFTISRDNAKNTVYLQMNSLKPEDTAVYYCAARLRDGRTPRTEYDYWGQGTQVTVSS", "polyreactivity (PSR sort gate)": "low polyreactivity"},
      {"sequence": "QVQLVESGGGLVQAGGSLRLSCAASGSTFWGYTMGWYRPAPGKERELVAAITGSGGSTNYADSVKGRFTISRDNAKNTVYLQMNSLKPEDTAVYYCATQGITPSNSYDYWGQGTQVTVSS", "polyreactivity (PSR sort gate)": "low polyreactivity"},
      {"sequence": "QVQLVESGGGLVQAGGSLRLSCAASGSTFWKYAMGWYRQAPGKEREFVAAITRSGGNTYYADSVKGRFTISRDNAKNTVYLQMNSLKPEDTAVYYCAKVYKLITSYRGFGYWGQGTQVTVSS", "polyreactivity (PSR sort gate)": "high polyreactivity"},
      {"sequence": "QVQLVESGGGLVQAGGSLRLSCAASGSTFWLYAMGWYRQAPGKERELVAAIRSGDRTNYADSVKGRFTISRDNAKHTVYLQMNSLKPEDTAVYYCAVRRWGTSFVEDDYWGQGTQVTVSS", "polyreactivity (PSR sort gate)": "low polyreactivity"},
      {"sequence": "QVQLVESGGGLVQAGGSLRLSCAASGSTFWPNAMGWYRQAPGKERELVAAITGGGGTNYADSVKGRFTISRDNAKNTVYLQMNSLKPEDTAVYYCAAKKVNSRSHVKYYYWGQGTQVSVSS", "polyreactivity (PSR sort gate)": "high polyreactivity"},
      {"sequence": "QVQLVESGGGLVQAGGSLRLSCAASGSTFWPYAMGWYRQAPGKERELVAAITSSGGSTYYADSVKGRFTISRDNAKNTVYLQMNSLKPEETAVYYCAADWSNLGAYDYWGQGTQVTVSS", "polyreactivity (PSR sort gate)": "low polyreactivity"},
      {"sequence": "QVQLVESGGGLVQAGGSLRLSCAASGSTFWPYTMGWYRQAPGKERELVAAISLSGGSTYYADSVKGRFTISRDNAKNTVYLQMNSLKPEDTAVYYCAAEGGYQNWHYLYDYWGQGTQVTVSS", "polyreactivity (PSR sort gate)": "low polyreactivity"},
      {"sequence": "QVQLVESGGGLVQAGGSLRLSCAASGSTFWSYTMGWYRQAPGKERELVARITGRGGSTYYADSVKGRFTISRDNAKNTVYLLMNSLKPEDTAVYYCAAGGGRYGFYRFDYWGQGTQVTVSS", "polyreactivity (PSR sort gate)": "low polyreactivity"},
      {"sequence": "QVQLVESGGGLVQAGGSLRLSCAASGSTFWTNAMGWNRQAPGKERELVATITYSTGTYADSVKGRFTISRDNAKNTVYLQMNSLKPEDTAVYYCAATGVPGWVGFDYWGQGTQVSVSS", "polyreactivity (PSR sort gate)": "low polyreactivity"},
      {"sequence": "QVQLVESGGGLVQAGGSLRLSCAASGSTFWVNALGWSRQAPGKERELVAVITVTGSRTYYADSVKGRFTISRDNAKNTVYLQMNTLKPEDTAVYYCAADRRRVQYKFDYWGQGTQVTVSS", "polyreactivity (PSR sort gate)": "low polyreactivity"},
      {"sequence": "QVQLVESGGGLVQAGGSLRLSCAASGSTFWVNAMGWYRQAPGKERELVAAISNSGGSTYYADSVKGRFTISRDNAKNTVYLQMNSLKPEDTAVYYCAAAGGVDYDYWGQGTQVTVSS", "polyreactivity (PSR sort gate)": "low polyreactivity"},
      {"sequence": "QVQLVESGGGLVQAGGSLRLSCAASGSTFWVNAMGWYRQAPGKERELVAAITVRGTSTYYADSVKGRFTISRDNAKNTVYLQMNSLKPEDTAVYYCAKGSLGSTRYYYWGQGTQVTVSS", "polyreactivity (PSR sort gate)": "low polyreactivity"},
      {"sequence": "QVQLVESGGGLVQAGGSLRLSCAASGSTFWVYGMGWSRQAPGKERELVADITSIGGSTYYADSVKGRFTISRDNAKNTVYLQMNSLKPEDTAVYYCAARETWYPYYWMGYWGQGTQVTVSS", "polyreactivity (PSR sort gate)": "high polyreactivity"},
      {"sequence": "QVQLVESGGGLVQAGGSLRLSCAASGSTFWYNDMGWYRQAPGKESELVAAITWTGDGTYYADTVKGRFTISRDNAKNTVYLQMNSLKPEDTAVYYCAAAYFQWSTSIVGLDAWYDYWGQGTQVTVSS", "polyreactivity (PSR sort gate)": "low polyreactivity"},
      {"sequence": "QVQLVESGGGLVQAGGSLRLSCAASGSTFWYYAMGWYRQAPGKEREFVAAITTSAGRTYYADSVKGRFTISRDNAKNTVYLQMNSLKPEDTAVYYCAAEPRQYWEYNYWGQGTQVTVSS", "polyreactivity (PSR sort gate)": "high polyreactivity"},
      {"sequence": "QVQLVESGGGLVQAGGSLRLSCAASGSTFWYYAMGWYRQAPGKERELVAAINGSGSRTYYADSVKGRFTISRDNAKNTVYLQMNSLKPEDTAVYYCAAGSLGRYYFKLDYWGQGTQVTVSS", "polyreactivity (PSR sort gate)": "high polyreactivity"},
      {"sequence": "QVQLVESGGGLVQAGGSLRLSCAASGSTFWYYAMGWYRQAPGKERELVAAISVRGGSTYYADSVKGRFTISRDNAKNTVYLQMNSLKPEETGVYYCAAVSYKSHRYDYWGQGTQVTVSS", "polyreactivity (PSR sort gate)": "high polyreactivity"}
    ]}
  ]
}
